Source: article PMC9482650, “Quantitative fragmentomics allow affinity mapping of interactomes” (Nature Communications, 2022)
Values belong to the binder of their own block, whether it stands above or below them.

Experiments:
Assay in all cases: holdup assay
Design in all cases: key: below the threshold = too weak to quantify, mostly under pKd 3.1 to 4
GRIP2_4, Q9C0E4 = target: GRIP2_4, Q9C0E4
PDZRN3_1, Q9UPQ7 = target: T1, PDZRN3_1, Q9UPQ7
T1 sequence (Q9UPQ7 244-349, limits assumed, looked up): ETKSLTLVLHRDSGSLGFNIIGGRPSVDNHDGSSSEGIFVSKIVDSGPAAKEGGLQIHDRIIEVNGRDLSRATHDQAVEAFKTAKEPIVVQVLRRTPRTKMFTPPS

PICK1, Q9NRD5 = target: PICK1, Q9NRD5
Sequence of PICK1, Q9NRD5 (Q9NRD5 17-115): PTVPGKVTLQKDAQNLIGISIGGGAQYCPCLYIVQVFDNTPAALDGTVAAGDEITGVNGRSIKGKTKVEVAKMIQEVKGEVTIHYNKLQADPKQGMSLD

LRRC7, Q96NW7 = target: T2, LRRC7, Q96NW7
T2 sequence (Q96NW7 1440-1537, limits assumed, looked up): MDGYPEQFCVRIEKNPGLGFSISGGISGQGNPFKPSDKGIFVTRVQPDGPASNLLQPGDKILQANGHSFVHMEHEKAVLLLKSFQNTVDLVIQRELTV

DFNB31_1, Q9P202 = target: T3, DFNB31_1, Q9P202
T3 sequence (Q9P202 135-233, limits assumed, looked up): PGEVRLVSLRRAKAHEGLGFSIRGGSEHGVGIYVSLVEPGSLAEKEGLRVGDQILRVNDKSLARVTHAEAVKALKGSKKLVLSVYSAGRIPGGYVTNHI

LIN7A, O14910 = target: T4, LIN7A, O14910
T4 sequence (O14910 103-200, limits assumed, looked up): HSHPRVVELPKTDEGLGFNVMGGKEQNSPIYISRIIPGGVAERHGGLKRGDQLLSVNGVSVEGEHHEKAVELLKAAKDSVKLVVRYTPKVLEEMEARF

RADIL, Q96JH8 = target: T5, RADIL, Q96JH8
T5 sequence (Q96JH8 971-1071, limits assumed, looked up): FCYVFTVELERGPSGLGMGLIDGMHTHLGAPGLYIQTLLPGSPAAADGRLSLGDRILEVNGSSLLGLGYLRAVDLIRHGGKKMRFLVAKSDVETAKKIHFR

MAGI1_2, Q96QZ7 = target: MAGI1_2, Q96QZ7
Sequence of MAGI1_2, Q96QZ7 (Q96QZ7 456-580): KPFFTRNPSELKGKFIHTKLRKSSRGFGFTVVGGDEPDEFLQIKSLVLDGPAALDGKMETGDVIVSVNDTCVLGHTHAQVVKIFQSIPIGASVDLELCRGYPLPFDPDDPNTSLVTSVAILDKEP

HTRA4, P83105 = target: T6, HTRA4, P83105
T6 sequence (P83105 378-476, limits assumed, looked up): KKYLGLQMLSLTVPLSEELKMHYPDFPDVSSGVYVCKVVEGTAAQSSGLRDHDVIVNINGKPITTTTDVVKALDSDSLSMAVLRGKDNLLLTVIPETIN

Inadl_5, Q8NI35 = target: Inadl_5, Q8NI35
Sequence of Inadl_5, Q8NI35 (Q8NI35 673-780): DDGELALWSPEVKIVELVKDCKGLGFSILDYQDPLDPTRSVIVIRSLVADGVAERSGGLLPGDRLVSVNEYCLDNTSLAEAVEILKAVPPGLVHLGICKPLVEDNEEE

NHERF3_4, Q5T2W1 = target: T7, NHERF3_4, Q5T2W1
T7 sequence (Q5T2W1 373-468, limits assumed, looked up): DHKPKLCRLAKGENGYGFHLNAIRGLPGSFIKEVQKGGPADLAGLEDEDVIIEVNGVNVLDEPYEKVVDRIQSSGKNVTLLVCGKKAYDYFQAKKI

RHPN1, Q8TCX5 = target: T8, RHPN1, Q8TCX5
T8 sequence (Q8TCX5 508-602, limits assumed, looked up): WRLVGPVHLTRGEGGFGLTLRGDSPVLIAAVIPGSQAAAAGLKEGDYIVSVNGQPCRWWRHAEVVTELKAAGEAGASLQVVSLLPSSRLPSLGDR

ARHGEF12, Q9NZN5-2 = target: ARHGEF12, Q9NZN5-2
Sequence of ARHGEF12, Q9NZN5-2 (Q9NZN5 other isoform, or with tags, fused parts or gaps): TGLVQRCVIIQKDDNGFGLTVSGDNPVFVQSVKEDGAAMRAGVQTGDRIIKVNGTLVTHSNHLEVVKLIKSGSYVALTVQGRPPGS

PARD3_3, Q8TEW0 = target: PARD3_3, Q8TEW0
Sequence of PARD3_3, Q8TEW0 (Q8TEW0 582-685): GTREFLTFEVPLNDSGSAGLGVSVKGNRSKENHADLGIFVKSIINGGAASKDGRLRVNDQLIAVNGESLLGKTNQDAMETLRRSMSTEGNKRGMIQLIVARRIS

IL16_1, Q14005 = target: IL16_1, Q14005
Sequence of IL16_1, Q14005 (Q14005 210-306): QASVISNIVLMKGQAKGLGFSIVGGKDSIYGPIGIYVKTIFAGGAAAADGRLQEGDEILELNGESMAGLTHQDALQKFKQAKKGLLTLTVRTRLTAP

Inadl_2, Q8NI35 = target: Inadl_2, Q8NI35
Sequence of Inadl_2, Q8NI35 (Q8NI35 238-335): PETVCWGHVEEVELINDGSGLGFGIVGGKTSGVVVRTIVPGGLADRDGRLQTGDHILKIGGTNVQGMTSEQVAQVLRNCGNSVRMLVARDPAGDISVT

NHERF3_1, Q5T2W1 = target: T9, NHERF3_1, Q5T2W1
T9 sequence (Q5T2W1 4-100, limits assumed, looked up): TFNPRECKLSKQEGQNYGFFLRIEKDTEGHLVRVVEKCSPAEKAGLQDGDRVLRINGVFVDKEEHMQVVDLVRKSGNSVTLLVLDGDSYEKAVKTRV

PCLO, Q9Y6V0 = target: T10, PCLO, Q9Y6V0
T10 sequence (Q9Y6V0 4491-4600, limits assumed, looked up): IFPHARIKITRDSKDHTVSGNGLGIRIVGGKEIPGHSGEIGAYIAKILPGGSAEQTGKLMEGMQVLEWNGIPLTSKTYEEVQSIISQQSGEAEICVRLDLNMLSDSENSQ

GRIP1_3, Q9Y3R0 = target: T11, GRIP1_3, Q9Y3R0
T11 sequence (Q9Y3R0 247-346, limits assumed, looked up): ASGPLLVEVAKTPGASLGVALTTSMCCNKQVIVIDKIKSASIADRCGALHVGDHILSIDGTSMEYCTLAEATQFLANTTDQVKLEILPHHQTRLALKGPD

DLG4_1, P78352 = target: DLG4_1, P78352
Sequence of DLG4_1, P78352 (P78352 62-152): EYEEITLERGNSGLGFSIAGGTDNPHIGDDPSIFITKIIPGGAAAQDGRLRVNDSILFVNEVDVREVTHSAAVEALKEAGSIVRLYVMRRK

LAP2, Q96RT1 = target: LAP2, Q96RT1
Sequence of LAP2, Q96RT1 (Q96RT1 other isoform, or with tags, fused parts or gaps): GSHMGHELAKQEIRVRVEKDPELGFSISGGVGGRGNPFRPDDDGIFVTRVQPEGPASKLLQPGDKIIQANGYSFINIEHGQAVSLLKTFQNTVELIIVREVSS

MAST2, Q6P0Q8 = target: MAST2, Q6P0Q8
Sequence of MAST2, Q6P0Q8 (Q6P0Q8 1099-1202): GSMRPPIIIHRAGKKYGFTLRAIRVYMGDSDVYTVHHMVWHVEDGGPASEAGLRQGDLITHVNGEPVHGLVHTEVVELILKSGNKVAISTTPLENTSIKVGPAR

DLG1_2, Q12959 = target: DLG1_2, Q12959
Sequence of DLG1_2, Q12959 (Q12959 314-412): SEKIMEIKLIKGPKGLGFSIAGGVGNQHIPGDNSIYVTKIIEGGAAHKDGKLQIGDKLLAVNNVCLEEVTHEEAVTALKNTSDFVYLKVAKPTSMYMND

MPP7, Q5T2T1 = target: T12, MPP7, Q5T2T1
T12 sequence (Q5T2T1 134-230, limits assumed, looked up): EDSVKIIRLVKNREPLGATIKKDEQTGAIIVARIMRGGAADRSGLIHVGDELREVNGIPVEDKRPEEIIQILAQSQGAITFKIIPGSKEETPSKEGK

[1] = plain residues with an end cap or a label only (N-terminal biotin on a linker: ttds)
[2] = plain residues with an end cap or a label only (N-terminal biotin on a linker: ahx)
[3] = plain residues with an end cap or a label only (N-terminal biotin on a linker: ado-ado)

Sequence of GRIP2_4, Q9C0E4 (Q9C0E4 446-548): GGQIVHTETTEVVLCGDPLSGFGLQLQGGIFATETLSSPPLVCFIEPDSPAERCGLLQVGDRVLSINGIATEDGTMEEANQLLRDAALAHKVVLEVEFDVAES

pKd (GRIP2_4, Q9C0E4; [1]): below the threshold | pKd (PDZRN3_1, Q9UPQ7; [1]): below the threshold | pKd (PICK1, Q9NRD5; [1]): below the threshold | pKd (LRRC7, Q96NW7; [1]): 4.05 | pKd (DFNB31_1, Q9P202; [1]): below the threshold | pKd (LIN7A, O14910; [1]): below the threshold | pKd (RADIL, Q96JH8; [1]): below the threshold | pKd (MAGI1_2, Q96QZ7; [1]): below the threshold | pKd (HTRA4, P83105; [1]): below the threshold | pKd (Inadl_5, Q8NI35; [1]): below the threshold | pKd (NHERF3_4, Q5T2W1; [1]): below the threshold | pKd (RHPN1, Q8TCX5; [1]): 4.09 | pKd (ARHGEF12, Q9NZN5-2; [1]): below the threshold | pKd (PARD3_3, Q8TEW0; [1]): below the threshold | pKd (IL16_1, Q14005; [1]): 4.66 | pKd (Inadl_2, Q8NI35; [1]): below the threshold | pKd (NHERF3_1, Q5T2W1; [1]): 3.59 | pKd (PCLO, Q9Y6V0; [1]): below the threshold | pKd (GRIP1_3, Q9Y3R0; [1]): below the threshold | pKd (DLG4_1, P78352; [1]): 4.32 | pKd (LAP2, Q96RT1; [1]): 4.74 | pKd (MAST2, Q6P0Q8; [1]): 4.84 | pKd (DLG1_2, Q12959; [1]): 4.65 | pKd (MPP7, Q5T2T1; [1]): below the threshold
Binder: PKRPFVESNV [TANC2, Q9HCD6]

pKd (GRIP2_4, Q9C0E4; [2]): below the threshold | pKd (PDZRN3_1, Q9UPQ7; [2]): 3.7 | pKd (PICK1, Q9NRD5; [2]): below the threshold | pKd (LRRC7, Q96NW7; [2]): 3.63 | pKd (DFNB31_1, Q9P202; [2]): below the threshold | pKd (LIN7A, O14910; [2]): below the threshold | pKd (RADIL, Q96JH8; [2]): below the threshold | pKd (MAGI1_2, Q96QZ7; [2]): below the threshold | pKd (HTRA4, P83105; [2]): below the threshold | pKd (Inadl_5, Q8NI35; [2]): below the threshold | pKd (NHERF3_4, Q5T2W1; [2]): below the threshold | pKd (RHPN1, Q8TCX5; [2]): 4.73 | pKd (ARHGEF12, Q9NZN5-2; [2]): 3.68 | pKd (PARD3_3, Q8TEW0; [2]): below the threshold | pKd (IL16_1, Q14005; [2]): 4.02 | pKd (Inadl_2, Q8NI35; [2]): below the threshold | pKd (NHERF3_1, Q5T2W1; [2]): below the threshold | pKd (PCLO, Q9Y6V0; [2]): below the threshold | pKd (GRIP1_3, Q9Y3R0; [2]): below the threshold | pKd (DLG4_1, P78352; [2]): 4.37 | pKd (LAP2, Q96RT1; [2]): 4.26 | pKd (MAST2, Q6P0Q8; [2]): 4.49 | pKd (DLG1_2, Q12959; [2]): 4.97 | pKd (MPP7, Q5T2T1; [2]): below the threshold
Binder: EKLSSIESDV [GRIN2B, Q13224]

pKd (GRIP2_4, Q9C0E4; [3]): below the threshold | pKd (PDZRN3_1, Q9UPQ7; [3]): 4.72 | pKd (PICK1, Q9NRD5; [3]): 4.14 | pKd (LRRC7, Q96NW7; [3]): below the threshold | pKd (DFNB31_1, Q9P202; [3]): below the threshold | pKd (LIN7A, O14910; [3]): 3.55 | pKd (RADIL, Q96JH8; [3]): 3.61 | pKd (MAGI1_2, Q96QZ7; [3]): below the threshold | pKd (HTRA4, P83105; [3]): below the threshold | pKd (Inadl_5, Q8NI35; [3]): below the threshold | pKd (NHERF3_4, Q5T2W1; [3]): below the threshold | pKd (RHPN1, Q8TCX5; [3]): 4.61 | pKd (ARHGEF12, Q9NZN5-2; [3]): 4.13 | pKd (PARD3_3, Q8TEW0; [3]): 4.35 | pKd (IL16_1, Q14005; [3]): 4.48 | pKd (Inadl_2, Q8NI35; [3]): below the threshold | pKd (NHERF3_1, Q5T2W1; [3]): 5.06 | pKd (PCLO, Q9Y6V0; [3]): below the threshold | pKd (GRIP1_3, Q9Y3R0; [3]): below the threshold | pKd (DLG4_1, P78352; [3]): below the threshold | pKd (LAP2, Q96RT1; [3]): below the threshold | pKd (MAST2, Q6P0Q8; [3]): 5.32 | pKd (DLG1_2, Q12959; [3]): 3.88 | pKd (MPP7, Q5T2T1; [3]): below the threshold
Binder: GFGEERESIL [KIDINS220, Q9ULH0]
